Results published in patent US20170306033A1 (Amgen, published 2017).

T1: human PAC1 receptor (human, UniProt P41586 21-468)
T1 sequence: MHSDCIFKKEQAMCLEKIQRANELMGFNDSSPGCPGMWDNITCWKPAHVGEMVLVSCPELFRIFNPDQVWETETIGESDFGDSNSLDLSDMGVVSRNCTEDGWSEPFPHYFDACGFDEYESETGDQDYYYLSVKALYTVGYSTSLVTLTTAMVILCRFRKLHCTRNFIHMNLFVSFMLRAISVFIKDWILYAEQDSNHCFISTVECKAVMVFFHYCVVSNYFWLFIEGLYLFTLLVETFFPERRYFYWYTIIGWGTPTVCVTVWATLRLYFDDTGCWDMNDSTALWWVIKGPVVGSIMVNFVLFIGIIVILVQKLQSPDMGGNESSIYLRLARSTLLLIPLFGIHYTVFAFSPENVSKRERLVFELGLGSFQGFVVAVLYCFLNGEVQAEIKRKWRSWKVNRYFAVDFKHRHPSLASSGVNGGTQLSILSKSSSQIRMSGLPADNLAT


Experiments:
human PAC1 receptor = target: T1, human PAC1 receptor; assay: cell-based or functional assay
human CGRP receptor = human CGRP receptor (human, UniProt Q16602 23-461; O60894 27-148); assay: cell-based or functional assay
human CGRP receptor, sequence (Q16602 23-461 limits assumed, chain 1 of 2): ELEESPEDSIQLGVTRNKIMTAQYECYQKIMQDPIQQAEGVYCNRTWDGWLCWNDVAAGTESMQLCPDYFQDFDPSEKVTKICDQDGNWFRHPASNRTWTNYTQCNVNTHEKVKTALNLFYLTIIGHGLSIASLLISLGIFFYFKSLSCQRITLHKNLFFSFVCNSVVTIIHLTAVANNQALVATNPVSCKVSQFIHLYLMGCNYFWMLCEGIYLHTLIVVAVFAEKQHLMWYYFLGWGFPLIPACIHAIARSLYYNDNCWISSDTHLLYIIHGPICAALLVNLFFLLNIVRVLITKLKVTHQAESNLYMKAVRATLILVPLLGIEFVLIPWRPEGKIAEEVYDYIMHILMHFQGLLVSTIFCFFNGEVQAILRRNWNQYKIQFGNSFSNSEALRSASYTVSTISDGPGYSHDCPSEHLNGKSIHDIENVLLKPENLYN
human CGRP receptor, sequence (O60894 27-148 limits assumed, chain 2 of 2): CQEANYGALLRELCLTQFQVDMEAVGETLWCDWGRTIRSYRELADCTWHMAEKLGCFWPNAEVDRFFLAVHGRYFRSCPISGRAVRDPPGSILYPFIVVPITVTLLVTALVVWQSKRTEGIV

Binder | % inhibition of human PAC1 (human PAC1 receptor) | % inhibition of human CGRPR (human CGRP receptor)
iPS:327291 (bispecific antibody, human IgG1, kappa, lambda, N297G) light 1: EIVLTQSPATLSLSPGERATLSCRASQSVGRSLHWYQQKPGQAPRLLIKYASQSLSGIPARFSGSGSGTDFTLTISSLEPEDFAVYYCHQSSRLPFTFGPGTKVDIKRTVAAPSVFIFPPSDEQLKSGTASVVCLLNNFYPREAKVQWKVDNALQSGNSQESVTEQDSKDSTYSLESTLTLSKADYEKHKVYACEVTHQGLSSPVTKSFNRGEC heavy 1: not shown light 2: QSVLTQPPSVSAAPGQKVTISCSGSSSNIGNNYVSWYQQLPGTAPKLLIYDNNKRPSGIPDRFSGSKSGTSTTLGITGLQTGDEADYYCGTWDSRLSAVVFGGGTKLTVLGQPKANPTVTLFPPSSEELQANKATLVCLISDFYPGAVTVAWKADGSPVKAGVETTKPSKQSNNKYAAKSYLSLTPEQWKSHRSYSCQVTHEGSTVEKTVAPTECS heavy 2: QVQLVESGGGVVQPGRSLRLSCAASGFTFSSFGMHWVRQAPGKGLEWVAVISFDGSIKYSVDSVKGRFTISRDNSKNTLFLQMNSLRAEDTAVYYCARDRLNYYDSSGYYHYKYYGMAVWGQGTTVTVSSASTKGPSVFPLAPSSKSTSGGTAALGCLVKDYFPEPVTVSWNSGALTSGVHTFPAVLQSSGLYSLESVVTVPSSSLGTQTYICNVNHKPSNTKVDKKVEPKSCDKTHTCPPCPAPELLGGPSVFLFPPKPKDTLMISRTPEVTCVVVDVSHEDPEVKFNWYVDGVEVHNAKTKPCEEQYGSTYRCVSVLTVLHQDWLNGKEYKCKVSNKALPAPIEKTISKAKGQPREPQVYTLPPSRKKMTKNQVSLTCLVKGFYPSDIAVEWESNGQPENNYKTTPPVLKSDGSFFLYSKLTVDKSRWQQGNVFSCSVMHEALHNHYTQKSLSLSPGK | 89% | 70%
iPS:327681 (bispecific antibody, human IgG1, kappa, N297G) light 1: DIQMTQSPSSLSASVGDRITITCRASQSISRYLNWYQQKPGKAPKLLIYAASSLQSGIPSRFSGSGSGTDFTLTINSLQPEDFATYFCQQSYSPPFTFGEGTKVDIKRTVAAPSVFIFPPSDEQLKSGTASVVCLLNNFYPREAKVQWKVDNALQSGNSQESVTEQDSKDSTYSLESTLTLSKADYEKHKVYACEVTHQGLSSPVTKSFNRGEC heavy 1: not shown light 2: EIVLTQSPGTLSLSPGERATLSCRASQSVSSGYLTWYQQKPGQAPRLLIYGASSRATGIPDRFSGSGSGTDFTLTISRLEPEDFAVYYCQQYGNSLSRFGKGTKLEIKRTVAAPSVFIFPPSDEQLKSGTASVVCLLNNFYPREAKVQWKVDNALQSGNSQESVTEQDSKDSTYSLKSTLTLSKADYEKHKVYACEVTHQGLSSPVTKSFNRGEC heavy 2: QVQLVESGGGVVQPGRSLRLSCAASGFTFSSYGMHWVRQAPGKELEWVAVIWYDGSNKYYAESVKGRFIISRDKSKNTLYLQMNSLRAEDTAVYYCARAGGIAAAGLYYYYGMDVWGQGTTVTVSSASTKGPSVFPLAPSSKSTSGGTAALGCLVKDYFPEPVTVSWNSGALTSGVHTFPAVLQSSGLYSLESVVTVPSSSLGTQTYICNVNHKPSNTKVDKKVEPKSCDKTHTCPPCPAPELLGGPSVFLFPPKPKDTLMISRTPEVTCVVVDVSHEDPEVKFNWYVDGVEVHNAKTKPCEEQYGSTYRCVSVLTVLHQDWLNGKEYKCKVSNKALPAPIEKTISKAKGQPREPQVYTLPPSRKEMTKNQVSLTCLVKGFYPSDIAVEWESNGQPENNYKTTPPVLKSDGSFFLYSKLTVDKSRWQQGNVFSCSVMHEALHNHYTQKSLSLSPGK | 73% | 72%
iPS:327685 (bispecific antibody, human IgG1, kappa, N297G) light 1: not shown heavy 1: not shown light 2: EIVLTQSPGTLSLSPGERATLSCRASQSVSSGYLTWYQQKPGQAPRLLIYGASSRATGIPDRFSGSGSGTDFTLTISRLEPEDFAVYYCQQYGNSLSRFGQGTKLEIKRTVAAPSVFIFPPSDEQLKSGTASVVCLLNNFYPREAKVQWKVDNALQSGNSQESVTEQDSKDSTYSLKSTLTLSKADYEKHKVYACEVTHQGLSSPVTKSFNRGEC heavy 2: not shown | 85% | 86%
iPS:327684 (bispecific antibody, human IgG1, kappa, N297G) light 1: EIVLTQSPATLSLSPGERATLSCRASQSVGRSLHWYQQKPGQAPRLLIKYASQSLSGIPARFSGSGSGTDFTLTISSLEPEDFAVYYCHQSSRLPFTFGEGTKVDIKRTVAAPSVFIFPPSDEQLKSGTASVVCLLNNFYPREAKVQWKVDNALQSGNSQESVTEQDSKDSTYSLESTLTLSKADYEKHKVYACEVTHQGLSSPVTKSFNRGEC heavy 1: not shown light 2: EIVLTQSPGTLSLSPGERATLSCRASQSVSSGYLTWYQQKPGQAPRLLIYGASSRATGIPDRFSGSGSGTDFTLTISRLEPEDFAVYYCQQYGNSLSRFGKGTKLEIKRTVAAPSVFIFPPSDEQLKSGTASVVCLLNNFYPREAKVQWKVDNALQSGNSQESVTEQDSKDSTYSLKSTLTLSKADYEKHKVYACEVTHQGLSSPVTKSFNRGEC heavy 2: QVQLVESGGGVVQPGRSLRLSCAASGFTFSSYGMHWVRQAPGKELEWVAVIWYDGSNKYYAESVKGRFIISRDKSKNTLYLQMNSLRAEDTAVYYCARAGGIAAAGLYYYYGMDVWGQGTTVTVSSASTKGPSVFPLAPSSKSTSGGTAALGCLVKDYFPEPVTVSWNSGALTSGVHTFPAVLQSSGLYSLESVVTVPSSSLGTQTYICNVNHKPSNTKVDKKVEPKSCDKTHTCPPCPAPELLGGPSVFLFPPKPKDTLMISRTPEVTCVVVDVSHEDPEVKFNWYVDGVEVHNAKTKPCEEQYGSTYRCVSVLTVLHQDWLNGKEYKCKVSNKALPAPIEKTISKAKGQPREPQVYTLPPSRKEMTKNQVSLTCLVKGFYPSDIAVEWESNGQPENNYKTTPPVLKSDGSFFLYSKLTVDKSRWQQGNVFSCSVMHEALHNHYTQKSLSLSPGK | 74% | 71%
iPS:327678 (bispecific antibody, human IgG1, kappa, N297G) light 1: not shown heavy 1: not shown light 2: EIVLTQSPGTLSLSPGERATLSCRASQSVSSGYLTWYQQKPGQAPRLLIYGASSRATGIPDRFSGSGSGTDFTLTISRLEPEDFAVYYCQQYGNSLSRFGQGTKLEIKRTVAAPSVFIFPPSDEQLKSGTASVVCLLNNFYPREAKVQWKVDNALQSGNSQESVTEQDSKDSTYSLKSTLTLSKADYEKHKVYACEVTHQGLSSPVTKSFNRGEC heavy 2: not shown | 43% | 84%
iPS:327682 (bispecific antibody, human IgG1, kappa, N297G) light 1: not shown heavy 1: not shown light 2: EIVLTQSPGTLSLSPGERATLSCRASQSVSSGYLTWYQQKPGQAPRLLIYGASSRATGIPDRFSGSGSGTDFTLTISRLEPEDFAVYYCQQYGNSLSRFGKGTKLEIKRTVAAPSVFIFPPSDEQLKSGTASVVCLLNNFYPREAKVQWKVDNALQSGNSQESVTEQDSKDSTYSLKSTLTLSKADYEKHKVYACEVTHQGLSSPVTKSFNRGEC heavy 2: QVQLVESGGGVVQPGRSLRLSCAASGFTFSSYGMHWVRQAPGKELEWVAVIWYDGSNKYYAESVKGRFIISRDKSKNTLYLQMNSLRAEDTAVYYCARAGGIAAAGLYYYYGMDVWGQGTTVTVSSASTKGPSVFPLAPSSKSTSGGTAALGCLVKDYFPEPVTVSWNSGALTSGVHTFPAVLQSSGLYSLESVVTVPSSSLGTQTYICNVNHKPSNTKVDKKVEPKSCDKTHTCPPCPAPELLGGPSVFLFPPKPKDTLMISRTPEVTCVVVDVSHEDPEVKFNWYVDGVEVHNAKTKPCEEQYGSTYRCVSVLTVLHQDWLNGKEYKCKVSNKALPAPIEKTISKAKGQPREPQVYTLPPSRKEMTKNQVSLTCLVKGFYPSDIAVEWESNGQPENNYKTTPPVLKSDGSFFLYSKLTVDKSRWQQGNVFSCSVMHEALHNHYTQKSLSLSPGK | 12% | 75%
iPS:327683 (bispecific antibody, human IgG1, kappa, N297G) light 1: DIQLTQSPSFLSASVGDRVTITCRASQSIGRSLHWYQQKPGKAPKLLIKYASQSLSGVPSRFSGSGSGTEFTLTISSLQPEDFATYYCHQSSRLPFTFGEGTKVDIKRTVAAPSVFIFPPSDEQLKSGTASVVCLLNNFYPREAKVQWKVDNALQSGNSQESVTEQDSKDSTYSLESTLTLSKADYEKHKVYACEVTHQGLSSPVTKSFNRGEC heavy 1: not shown light 2: EIVLTQSPGTLSLSPGERATLSCRASQSVSSGYLTWYQQKPGQAPRLLIYGASSRATGIPDRFSGSGSGTDFTLTISRLEPEDFAVYYCQQYGNSLSRFGKGTKLEIKRTVAAPSVFIFPPSDEQLKSGTASVVCLLNNFYPREAKVQWKVDNALQSGNSQESVTEQDSKDSTYSLKSTLTLSKADYEKHKVYACEVTHQGLSSPVTKSFNRGEC heavy 2: QVQLVESGGGVVQPGRSLRLSCAASGFTFSSYGMHWVRQAPGKELEWVAVIWYDGSNKYYAESVKGRFIISRDKSKNTLYLQMNSLRAEDTAVYYCARAGGIAAAGLYYYYGMDVWGQGTTVTVSSASTKGPSVFPLAPSSKSTSGGTAALGCLVKDYFPEPVTVSWNSGALTSGVHTFPAVLQSSGLYSLESVVTVPSSSLGTQTYICNVNHKPSNTKVDKKVEPKSCDKTHTCPPCPAPELLGGPSVFLFPPKPKDTLMISRTPEVTCVVVDVSHEDPEVKFNWYVDGVEVHNAKTKPCEEQYGSTYRCVSVLTVLHQDWLNGKEYKCKVSNKALPAPIEKTISKAKGQPREPQVYTLPPSRKEMTKNQVSLTCLVKGFYPSDIAVEWESNGQPENNYKTTPPVLKSDGSFFLYSKLTVDKSRWQQGNVFSCSVMHEALHNHYTQKSLSLSPGK | 30% | 70%
iPS:327677 (bispecific antibody, human IgG1, kappa, N297G) light 1: not shown heavy 1: not shown light 2: EIVLTQSPGTLSLSPGERATLSCRASQSVSSGYLTWYQQKPGQAPRLLIYGASSRATGIPDRFSGSGSGTDFTLTISRLEPEDFAVYYCQQYGNSLSRFGQGTKLEIKRTVAAPSVFIFPPSDEQLKSGTASVVCLLNNFYPREAKVQWKVDNALQSGNSQESVTEQDSKDSTYSLKSTLTLSKADYEKHKVYACEVTHQGLSSPVTKSFNRGEC heavy 2: not shown | 43% | 81%
